For experiment [1], the target named is T1, Trimeric SARS-CoV-2 S-protein (SARS-CoV-2 (P0DTC2 reference)); strain …, UniProt P0DTC2, biotin (site-specific, BirA, on the AviTag)). The experiment can be described thus: BLI.
Experiment [2] has as its target T1, Trimeric SARS-CoV-2 S-protein. The experiment can be described thus: ELISA. On the technique in general: In an ELISA, binding on a coated surface is turned into a signal by an enzyme label.

B1: IgG 15036 (antibody, V domains shown)
VH: EVQLVESGGGLVQPGGSLRLSCAASGFDFTAYDIHWVRQAPGKGLEWVAGISASGGYTAYADSVKGRFTISADTSKNTAYLQMNSLRAEDTAVYYCARDGFHSYALDYWGQGTLVTVSS
VL: DIQMTQSPSSLSASVGDRVTITCRASQSVSSAVAWYQQKPGKAPKLLIYSASSLYSGVPSRFSGSRSGTDFTLTISSLQPEDFATYYCQQWYSLFTFGQGTKVEIK
B1 had a Kd in experiment [1] of 0.1 ± 0.1 nM. Further, a half-maximal effect in experiment [2] (EC50) was put at 0.5 ± 0.1 nM.

B2: IgG 15046 (antibody, V domains shown)
VH: EVQLVESGGGLVQPGGSLRLSCAASGFDFGSYAMHWVRQAPGKGLEWVAGIYASGGYTDYADSVKGRFTISADTSKNTAYLQMNSLRAEDTAVYYCARGWSYYWGFDYWGQGTLVTVSS
VL: DIQMTQSPSSLSASVGDRVTITCRASQSVSSAVAWYQQKPGKAPKLLIYSASSLYSGVPSRFSGSRSGTDFTLTISSLQPEDFATYYCQQYDYGLFTFGQGTKVEIK
In turn, B2 gave a Kd in experiment [1] of 2.3 ± 0.6 nM. In addition, the midpoint of the response in experiment [2], the EC50, lay at 1.3 ± 0.3 nM.

As usually defined, the Kd is a measure of binding affinity in units of concentration. Low readings indicate tighter binding, high ones weaker binding. The EC50 is the concentration at which the effect is half-maximal. Read a low EC50 as an effect from little substance.

The values above are taken from paper PMC8028696 (Journal of Molecular Biology, 2021).
